Experimental data from patent US20240181006A1, “POLYPEPTIDES BINDING ADAMTS5, MMP13 AND AGGRECAN” (Merck Patent GmbH, priority 2017, published 2024).

How the values were obtained:
human ADAMTS5 = biological target: T1, human ADAMTS5 (Homo sapiens, UniProt Q9UNA0); assay: AlphaLISA based human ADAMTS5 assay; type: biochemical
T1 sequence (Q9UNA0 262-930): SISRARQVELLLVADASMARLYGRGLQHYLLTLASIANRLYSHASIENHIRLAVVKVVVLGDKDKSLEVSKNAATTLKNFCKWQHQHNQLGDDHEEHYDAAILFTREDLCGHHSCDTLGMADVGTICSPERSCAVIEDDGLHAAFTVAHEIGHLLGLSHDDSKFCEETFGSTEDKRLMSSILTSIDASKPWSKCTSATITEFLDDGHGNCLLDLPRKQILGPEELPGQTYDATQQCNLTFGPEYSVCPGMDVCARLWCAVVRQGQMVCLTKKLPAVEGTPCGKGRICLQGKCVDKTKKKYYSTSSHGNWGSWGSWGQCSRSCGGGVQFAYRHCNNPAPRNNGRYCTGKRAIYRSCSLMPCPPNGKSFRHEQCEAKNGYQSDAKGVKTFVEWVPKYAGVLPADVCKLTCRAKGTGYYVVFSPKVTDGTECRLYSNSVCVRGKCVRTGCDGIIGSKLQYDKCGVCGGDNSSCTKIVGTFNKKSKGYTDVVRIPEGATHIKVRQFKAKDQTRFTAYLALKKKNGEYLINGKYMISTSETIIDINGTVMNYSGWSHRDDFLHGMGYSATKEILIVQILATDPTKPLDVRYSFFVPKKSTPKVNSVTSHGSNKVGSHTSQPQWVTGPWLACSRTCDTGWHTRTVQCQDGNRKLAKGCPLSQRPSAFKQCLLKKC
Description: In short, a periplasmic extract of ISVD 02F03 was tested for binding to recombinant human ADAMTS5 by binding ELISA. Next, it was confirmed that ISVD 02F03 was able to prevent ADAMTS5-mediated cleavage of Aggrecan in a FRET-based human ADAMTS5 enzymatic assay. Next to the FRET-based assay, an AlphaLISA (Perkin Elmer, Waltham, MA, US) based human ADAMTS5 assay with a biotinylated 43-mer Aggrecan oligopeptide as substrate was performed. Upon ADAMTS5 cleavage of this substrate, a biotinylated ARGSV neo-epitope product is released and can be detected by streptavidin-AlphaScreen donor beads and an α-neo-epitope (“ARGSV”) antibody captured on anti-mouse IgG-coated AlphaLISA acceptor beads, resulting in the generation of a luminescence AlphaScreen signal upon laser excitation. To determine the ability of ISVD 02F03 to prevent ADAMTS5-mediated cleavage of the substrate, the decrease in signal was analysed in function of ISVD 02F03 concentration and IC50 values were calculated.

guinea pig ADAMTS5 = biological target: T2, guinea pig ADAMTS5 (Cavia porcellus, UniProt H0VFP0); assay: SPR-based off-rate analysis, guinea pig ADAMTS5; type: binding; conditions: Experiment 1
T2 sequence (H0VFP0 21-906): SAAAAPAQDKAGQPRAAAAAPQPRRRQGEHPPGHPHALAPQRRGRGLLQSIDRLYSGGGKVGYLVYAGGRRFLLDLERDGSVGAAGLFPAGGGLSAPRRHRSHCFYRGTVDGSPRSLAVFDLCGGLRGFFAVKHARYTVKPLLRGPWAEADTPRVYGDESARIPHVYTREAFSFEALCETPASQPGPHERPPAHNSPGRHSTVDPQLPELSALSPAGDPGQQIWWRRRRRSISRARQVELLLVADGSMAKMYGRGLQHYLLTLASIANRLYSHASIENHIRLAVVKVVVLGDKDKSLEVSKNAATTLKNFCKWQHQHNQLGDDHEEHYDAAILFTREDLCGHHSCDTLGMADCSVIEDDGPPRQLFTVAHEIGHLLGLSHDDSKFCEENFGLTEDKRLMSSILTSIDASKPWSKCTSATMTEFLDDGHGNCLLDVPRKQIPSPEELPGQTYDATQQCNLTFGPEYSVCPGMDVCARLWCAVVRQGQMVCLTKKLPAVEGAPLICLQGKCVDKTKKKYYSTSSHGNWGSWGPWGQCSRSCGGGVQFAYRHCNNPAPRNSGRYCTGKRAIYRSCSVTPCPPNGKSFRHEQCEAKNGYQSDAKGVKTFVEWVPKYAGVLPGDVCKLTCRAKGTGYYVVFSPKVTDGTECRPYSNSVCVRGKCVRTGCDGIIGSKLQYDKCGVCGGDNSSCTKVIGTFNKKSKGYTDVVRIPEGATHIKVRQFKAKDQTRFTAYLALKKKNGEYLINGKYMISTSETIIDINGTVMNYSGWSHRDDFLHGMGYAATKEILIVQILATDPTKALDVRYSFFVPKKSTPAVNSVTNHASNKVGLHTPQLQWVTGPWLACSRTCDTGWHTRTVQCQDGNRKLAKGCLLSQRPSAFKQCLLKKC
Description: Species cross-reactivity was initially evaluated via SPR-based off-rate analysis on a Biacore T100 instrument. Polypeptides were tested for binding to human, cynomolgus monkey (“cyno”), guinea pig, mouse, and bovine ADAMTS5. To this end, recombinant ADAMTS5 was immobilized onto a CM5 chip via amine coupling using EDC and NHS. Purified ISVD 02F03 was injected for 2 minutes at a concentration of 100 nM and allowed to dissociate for 15 min at a flow rate of 45 μl/min. Off-rate for each individual ADAMTS5 was determined by fitting a 1:1 interaction model (Langmuir model) onto the individual dissociation curves using the BIA Evaluation software. As a reference, off-rates on human ADAMTS5 were determined in each experiment.

human MMP1 = biological target: T3, human MMP1 (Homo sapiens, UniProt P03956); assay: FRET-based human MMP1 assay (selectivity of 02F03); type: biochemical; conditions: data not shown
T3 sequence (P03956 100-469): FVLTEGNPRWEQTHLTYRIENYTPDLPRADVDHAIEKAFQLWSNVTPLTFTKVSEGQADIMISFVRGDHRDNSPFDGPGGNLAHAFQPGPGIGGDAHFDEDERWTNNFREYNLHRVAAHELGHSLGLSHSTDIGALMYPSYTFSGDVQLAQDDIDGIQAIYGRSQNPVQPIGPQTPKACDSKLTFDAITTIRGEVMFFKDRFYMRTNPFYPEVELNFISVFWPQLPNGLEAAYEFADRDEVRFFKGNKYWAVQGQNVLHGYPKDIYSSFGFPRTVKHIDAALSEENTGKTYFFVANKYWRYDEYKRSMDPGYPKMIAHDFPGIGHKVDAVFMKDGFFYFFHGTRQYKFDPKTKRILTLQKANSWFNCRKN
Description: (§1) To confirm the selectivity of ISVD 02F03 for ADAMTS5, inhibition of the enzymatic activity of MMP1, MMP14 and ADAMTS4 was evaluated via FRET-based assays and a human ADAMTS4 AlphaLISA, with the respective enzymes.
(§2) Activated human MMP1 or MMP14 was incubated for 30 minutes at room temperature with 10 μl of dilution series of ISVD 02F03. After incubation, 20 μl of respectively 5 μM or 2.5 μM fluorogenic peptide substrate (Mca-PLGL-Dpa-AR-NH2 Fluorogenic MMP Substrate (R&D Systems cat #ES001)) was added. The ability of ISVD 02F03 to prevent MMP1- and MMP14-mediated cleavage was monitored every minute for 2 hours at 37° C. on a Tecan Infinite M1000 plate reader.

human MMP14 = human MMP14 (Homo sapiens, UniProt P50281); assay: FRET-based human MMP14 assay (selectivity of 02F03); type: biochemical; conditions: data not shown
Description: as §1, §2

B1: ISVD 02F03: immunoglobulin single variable domain which specifically binds ADAMTS5 (protein)
VHH: EVQLVESGGGVVQPGGSLRLSCAASGRTVSSYAMGWFRQAPGKEREFVAGISRSAERTYYVDSLKGRFTISRDNSKNTVYLQMNSLRPEDTALYYCAADLDPNRIFSREEYAYWGQGTLVTVSS
modifications: Description of Artificial Sequence: Synthetic anti-ADAMTS5 immunoglobulin single variable domain (ISVD)
Q: With B1 as the molecule, how does the “Human AlphaLISA % inhibition” value (human ADAMTS5) read?
A: Its value is 100%.

Q: And the “SPR based off-rate, kd, Guinea pig ADAMTS-5” value (guinea pig ADAMTS5)?
A: Its value is 3.4e-05 s⁻¹.

Q: And the “inhibition of MMP1 activity” value (human MMP1)?
A: Its value is “did not show any inhibition”.

Q: And the “inhibition of MMP14 activity” value (human MMP14)?
A: The value was “did not show any inhibition”.
